One molecule from patent US12534533B2, “Anti-chemokine like receptor 1 humanized antibodies and their therapeutic applications” (OSE IMMUNOTHERAPEUTICS, priority 2019, dated 2026) can be followed below.

The subject of experiment [1] is MC38 CRC cell line. As to the kind of experiment: CRC model, tumor cell inoculated (MC38 subcutaneously). Type of experiment: in vivo, mice. To be noted: FIG. 31A. Here is the method:
Tumor inoculation was performed with 0.5M of MC38 CRC cell line subcutaneously. Mice were injected three times a week with 1 mg/kg of 2G1 or Ctrl Ab for 3 weeks starting at d4 after tumor induction. Cyclophosphamide was injected I.P. once at 100 mg/kg. Tumor development was assessed three times a week and survival curves were established when mice developed a tumor >1000 mm3.

The subject of experiment [2] is chronic colitis after CD45Rbhigh CD4 T cell transfer in Rag1 knock-out mice. As to the kind of experiment: CD45Rb high T-cell transfer chronic colitis model. In kind it is in vivo. As to the method: FIG. 19. Effect of an anti-CMKLR1 antibody in the CD45Rb^high T-cell transfer chronic colitis mouse model. A. Weight variation of treated animals was followed up to sixty days. Animals were treated with isotype control hIgG1 (x) or anti-CMKLR1 antibody (n). B. Histological staining of colon tissue in the mice treated with the anti-CMKLR1 (right) compared to control (left). C. Anatomic pathology scores used to calculate the severity of the pathology and the inflammation (inflammation score, vasculutis score, colon thickness and fibrotic colon wall). D. CD3 and Ly6G infiltration.
Method: CD45Rb^high CD4 T cells were isolated from the spleen of naive mice and sorted on an ARIA FACS after a negative selection of the CD4 T cells by magnetic sorting, then injected intraperitoneally at 0.5·10^6 cells in 100 μL of PBS into 6-weeks old female Rag1 knock-out mice. Anti-CMKLR1 antibody (2G1) or an isotype control were administered from day 32 after the CD45Rb^high CD4 T cell transfer for 3 weeks three times a week at 1 mg/kg. The follow-up of weight was evaluated three times a week and the weight variation was determined over the initial weight. * p<0.05, ** p<0.01.

The target in experiment [3] is T1, CMKLR1 peptide (loop EL3 of CMKLR1, SEQ ID No: 60) (Homo sapiens, UniProt Q99788).
T1 sequence (Q99788 275-307 limits assumed): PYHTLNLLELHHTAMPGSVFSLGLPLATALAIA
As to the kind of experiment: ELISA binding on CMKLR1 peptide. The note with it: compared to isotype control; FIG. 12. As to the method: FIG. 12. Binding analysis of the anti-CMKLR1 antibody on a CMKLR1 peptide by ELISA. The binding of the 2G1 antibody (□) on the CMKLR1 EL3 loop (SEQ ID No: 18) was compared to the isotype control antibody (3G8) (x) by measuring the OD at 450 nm by ELISA.
CMKLR1 peptide (273NH2-[…]-COOH305) (SEQ ID No: 60) (5 μg/ml) was coated in borate buffer overnight. Saturation was performed with PBS-Tween 0.1%-Gelatin 0.25% for 2 hours at 37° C. Then, 2G1 or hIgG1 antibodies were added at different concentrations for 2 hours at 37° C. […] The colorimetric reaction was read with TECAN.

Experiment [4] has as its system CCR7 expression at the surface of pro-inflammatory macrophages M1. The experiment is described as follows: CCR7 expression on M1 macrophages with coated antibodies. In kind it is cell-based, human. The note with it: antibody coated on plate, 48 h, flow cytometry; vs isotype control; FIG. 25, FIG. 35. Here is the method: FIG. 25. Inhibition of CCR7 expression on M1 macrophages cells in vitro with anti-ChemR23 antibodies coated. 2G1 and all humanized 2G1 variants (HALA, HCLC, HCLD, HDLC and HDLD) were immobilized on plate. Isotype control were added as controls. Two isotypes which prevent FcRγ binding, i.e., 2G1-N297A (2G1 wt mutated in N297A to reduce FcγR binding), and 2G4 (wt with isotype IgG4mutated in S228P to stabilise hinge region) were also added. Pro-inflammatory macrophages M1 were added on coated plate for 48 h, and CCR7 expression at the surface of the macrophages was measured by flow cytometry.
FIG. 35—Inhibition of CCR7 expression on M1 macrophages cells in vitro with anti-ChemR23 antibody coated. The humanized 2G1 variant HEF-LD-T52S was immobilized on plate. Isotype control were added as controls. Pro-inflammatory macrophages M1 were added on coated plate, and CCR7 expression at the surface of the macrophages was measured by flow cytometry.
MATERIAL AND METHODS. […]
RESULTS. […] Pro-inflammatory macrophages M1 were added on coated plate for 48 h, and CCR7 expression at the surface of the macrophages was measured by flow cytometry.
The humanized 2G1 variant HEF-LD-T52S was immobilized on plate. […] Pro-inflammatory macrophages M1 were added on coated plate for 48 h, and CCR7 expression at the surface of the macrophages was measured by flow cytometry. […]
In general terms: Flow cytometry measures light scatter and fluorescence of single cells or particles in a stream.

B1: 2G1: parental chimeric anti-CMKLR1 antibody: heavy chain variable domain SEQ ID No. 37, light chain variable domain SEQ ID No. 49 (antibody, V domains shown)
VH: EVQLVASGGGLVQPGGSLKLSCAASGFTFSSYGMSWVRQTPDRRLELVATINRYGGSTYYPDSVKGRFTISRDNAKNTLYLQMSSLKSEDTAMYYCPRLIYYGNEGDSWGQGTTLTVSS
VL: QIVLTQSPAIMSASPGEKVTMTCSASSSVSFMHWYQQKSGTSPKRWIYDTTKLTSGVPARFSGSGSGTFYSLTISSMEAEDAATYYCQQWNSKPPLTFGPGTKLELKR
Regarding B1, the tumor volume result in experiment [1] (1 mg/kg three times a week for 3 weeks starting at d4, vs control antibody) was “reduced”. Moreover, the remission entry in experiment [1] (in several cases) is reported as “complete remission”. Besides, the Weight variation entry in experiment [2] (1 mg/kg three times a week for 3 weeks from day 32, vs isotype control, FIG. 19A) is given as “continue to gain weight”. In experiment [2] (FIG. 19C), the “anatomic pathology scores, comprising inflammation scores” value was “lower”. In addition, in experiment [2] (histology, FIG. 19B), the colon tissue thickness entry is recorded as “decrease of tissue thickness” and the fibrotic tissue entry was “decrease of fibrotic tissue”. The “binding on the CMKLR1 EL3 loop peptide (OD at 450 nm)” value in experiment [3] is given as “able to bind the polypeptide forming the loop EL3 of CMKLR1”. Further, in experiment [4], the “expression of CCR7 at the surface of pro-inflammatory macrophages (M1)” value is recorded as “able to decrease expression of CCR7”.
